In PMC3616969:

Columns and labels:
[1] = biological target: HIV-1 AD8 gp41 K601N (HIV-1 AD8)
[2] = biological target: HIV-1 AD8 gp41 (wild type), cut from Env gp160 (HIV-1 AD8)
[3] = biological target: HIV-1 AD8 gp41 K601N (HIV-1 AD8); test: gp120 shedding assay (radioimmunoprecipitation of cell lysates and culture supernatants); 293T cells transfected with Env vectors, 35S pulse 45 min, chase 5-6 h; cell lysates and clarified supernatants immunoprecipitated with IgG14 and protein G Sepharose; reducing SDS-PAGE, phosphorimager; gp120-shedding index against WT
[4] = biological target: HIV-1 AD8 gp41 K601D (HIV-1 AD8); test: as above
[5] = biological target: HIV-1 AD8 gp41 (wild type), cut from Env gp160; test: radioimmunoprecipitation with HIVIG of metabolically labelled cell lysates and supernatants, SDS-PAGE, phosphorimager scanning

C34, HR2-based fusion inhibitor peptide, sequence (P03375 628-661): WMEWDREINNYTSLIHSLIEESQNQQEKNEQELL

Substance | other: gp120-shedding index [5] | also measured
C34, HR2-based fusion inhibitor peptide | – | IC50 of C34 for inhibition of cell-cell fusion by ΔN139INN/K601N Env (luciferase) [1]: 100 nM; IC50 of C34 for inhibition of cell-cell fusion by WT Env (luciferase) [2]: 100 nM
HIV-1 AD8 gp120 (wild type), cut from Env gp160 (natural protein) | – | gp120 shedding, fold with respect to WT [3]: 4.4 fold; gp120 shedding, fold with respect to WT [4]: 6.8 fold
HIV-1 AD8 gp120 (wild type), cut from Env gp160 N160Q | 0.7 | –
HIV-1 AD8 gp120 (wild type), cut from Env gp160 S143N | 0.6 | –
HIV-1 AD8 gp120 (wild type), cut from Env gp160 S144N | 0.6 | –
HIV-1 AD8 gp120 (wild type), cut from Env gp160 S158N | 3.6 | –
HIV-1 AD8 gp120 (wild type), cut from Env gp160 S188N | 1.6 | –
HIV-1 AD8 gp120 (wild type), cut from Env gp160 T138N | 0.5 | –
HIV-1 AD8 gp120 T138N (natural protein) | – | gp120-gp41 association, fold improvement with respect to K601D [4]: 2 fold
